# Measured values published in publication PMC7033311, “The Eaf3 chromodomain acts as a pH sensor for gene expression by altering its binding affinity for histone methylated-lysine residues” (Bioscience Reports, 2020).
# Positions count from the first letter of the chain named. Where no end group is shown, it is not given here. [ ]: non-standard residue; d: D form. The star is where a group is joined. MTSL = spin label, CC1(C)C=C(CS*)C(C)(C)N1[O]; Lys(Me3) = C[N+](C)(C)CCCC[C@H](N)C(=O)O
# T1: Eaf3 CD (residues 1-120) H18D (S. cerevisiae, UniProt Q12432 1-120, H18D)
# T1 construct: Eaf3 chromodomain (CD), budding yeast (S. cerevisiae), residues 1-120, H18D; 15N-labelled for the NMR experiments; also called H18D Eaf3 CD; source: E. coli BL21(DE3)pLysS, purified (Ni-NTA, thrombin, Ni-NTA flow-through, Superdex75)
# T1 sequence (looked up): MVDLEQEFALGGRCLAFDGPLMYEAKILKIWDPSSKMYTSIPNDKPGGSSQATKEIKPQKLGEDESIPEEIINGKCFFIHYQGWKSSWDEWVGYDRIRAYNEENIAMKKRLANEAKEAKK
# T2: Eaf3 chromodomain (Eaf3 CD, residues 1-120), wild type (S. cerevisiae, UniProt Q12432 1-120)
# T2 construct: Eaf3 chromodomain (CD), budding yeast (S. cerevisiae), residues 1-120; 15N-labelled for the NMR experiments; expressed from pET15b; also called WT Eaf3 CD; source: E. coli BL21(DE3)pLysS, purified (Ni-NTA, thrombin, Ni-NTA flow-through, Superdex75)
# T2 sequence (looked up): T1 sequence (looked up) with D18H
# T3: Eaf3 CD (residues 1-120) G19A (S. cerevisiae, UniProt Q12432 1-120, G19A)
# T3 construct: Eaf3 chromodomain (CD), budding yeast (S. cerevisiae), residues 1-120, G19A; 15N-labelled for the NMR experiments; source: E. coli BL21(DE3)pLysS, purified (Ni-NTA, thrombin, Ni-NTA flow-through, Superdex75)
# T3 sequence (looked up): T1 sequence (looked up) with D18H, G19A
# T4: Eaf3 CD (residues 1-120) W84Y (S. cerevisiae, UniProt Q12432 1-120, W84Y)
# T4 construct: Eaf3 chromodomain (CD), budding yeast (S. cerevisiae), residues 1-120, W84Y; 15N-labelled for the NMR experiments; source: E. coli BL21(DE3)pLysS, purified (Ni-NTA, thrombin, Ni-NTA flow-through, Superdex75)
# T4 sequence (looked up): T1 sequence (looked up) with D18H, W84Y
# T5: Eaf3 CD (residues 1-120) Q82A (S. cerevisiae, UniProt Q12432 1-120, Q82A)
# T5 construct: Eaf3 chromodomain (CD), budding yeast (S. cerevisiae), residues 1-120, Q82A; 15N-labelled for the NMR experiments; source: E. coli BL21(DE3)pLysS, purified (Ni-NTA, thrombin, Ni-NTA flow-through, Superdex75)
# T5 sequence (looked up): T1 sequence (looked up) with D18H, Q82A
# B1: MTSL spin-labelled H3K36me3 peptide (residues 32-41) with a Gly33Cys substitution (peptide, UniProt P61830 33-42, looked up)
# peptide: TC(MTSL)GVK(me3)KPHRY
# notes: histone H3 residues 32-41 with Gly33Cys; also called MTSL-H3K36me3 peptide; paramagnetically labeled H3K36me3 peptide; source: synthetic peptide (SIGMA Genosys), labelled with MTSL
# B2: histone H3 peptide H3K4me3, titration peptide (peptide)
# chain: ART[Lys(Me3)]QTARKSTGGKAPRY
# Columns and labels:
# Details in all cases: both partners purified
# [1] = biological target: T1, Eaf3 CD (residues 1-120) H18D; experiment: paramagnetic relaxation enhancement (NMR); MTSL-H3K36me3 peptide added to 0.3 mM 15N-labelled Eaf3 CD at 1:1; 10 mM potassium phosphate pH 6.8, 20 mM NaCl; paramagnetic against ascorbate-reduced sample
# [2] = biological target: T2, Eaf3 chromodomain (Eaf3 CD, residues …); experiment: as above
# [3] = biological target: T2, Eaf3 chromodomain (Eaf3 CD, residues …); experiment: NMR titration; 0.1 mM 15N-labelled WT or mutant Eaf3 CD titrated with unlabelled histone H3 peptide up to 1:88; 10 mM potassium phosphate pH 6.8, 20 mM NaCl, 5 mM DTT, 25°C; Kd by nonlinear fit of chemical shift change
# [4] = biological target: T3, Eaf3 CD (residues 1-120) G19A; experiment: as above
# [5] = biological target: T4, Eaf3 CD (residues 1-120) W84Y; experiment: as above
# [6] = biological target: T5, Eaf3 CD (residues 1-120) Q82A; experiment: as above
Binder,binding result [1],binding result [2],Kd [3] [µM],Kd [4] [µM],Kd [5] [µM],Kd [6] [µM]
B1,binds,binds,,,,
B2,,,2900 ± 10,800 ± 70,1590 ± 280,2240 ± 280
